Assay results reported in PMC3170320, “Minimal Antizyme Peptide Fully Functioning in the Binding and Inhibition of Ornithine Decarboxylase and Antizyme Inhibitor” (PLoS ONE, 2011).

The substances below were run against human ornithine decarboxylase, wild type (human) (UniProt P11926).
human ornithine decarboxylase, wild type (human), sequence (P11926 whole entry): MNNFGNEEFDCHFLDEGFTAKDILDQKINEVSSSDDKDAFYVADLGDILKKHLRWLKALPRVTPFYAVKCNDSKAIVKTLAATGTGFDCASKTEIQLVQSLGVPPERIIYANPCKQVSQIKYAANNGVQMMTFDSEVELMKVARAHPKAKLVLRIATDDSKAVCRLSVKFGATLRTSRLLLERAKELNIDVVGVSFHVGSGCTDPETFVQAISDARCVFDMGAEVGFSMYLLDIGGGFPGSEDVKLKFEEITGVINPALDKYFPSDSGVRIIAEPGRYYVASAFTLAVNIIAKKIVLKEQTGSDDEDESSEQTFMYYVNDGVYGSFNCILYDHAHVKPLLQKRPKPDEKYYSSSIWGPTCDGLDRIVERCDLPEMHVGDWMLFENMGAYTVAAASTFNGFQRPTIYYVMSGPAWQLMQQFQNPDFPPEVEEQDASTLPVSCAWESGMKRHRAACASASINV

human antizyme peptide AZ_87-228, sequence (P54368 87-228): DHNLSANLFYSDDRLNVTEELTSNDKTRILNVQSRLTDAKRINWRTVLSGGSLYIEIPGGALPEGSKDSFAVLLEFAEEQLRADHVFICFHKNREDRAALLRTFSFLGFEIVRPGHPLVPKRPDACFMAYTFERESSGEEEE
human antizyme peptide AZ_114-228, sequence (P54368 114-228): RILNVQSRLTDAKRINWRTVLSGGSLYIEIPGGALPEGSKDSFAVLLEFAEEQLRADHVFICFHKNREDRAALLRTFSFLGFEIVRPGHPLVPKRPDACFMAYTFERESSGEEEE
human antizyme peptide AZ_106-228, sequence (P54368 106-228): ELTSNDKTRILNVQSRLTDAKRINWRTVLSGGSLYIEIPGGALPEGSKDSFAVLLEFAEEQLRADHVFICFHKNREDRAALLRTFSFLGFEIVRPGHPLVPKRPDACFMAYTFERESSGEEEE
human antizyme peptide AZ_100-124, sequence (P54368 100-124): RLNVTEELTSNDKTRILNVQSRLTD
human antizyme peptide AZ_100-135, sequence (P54368 100-135): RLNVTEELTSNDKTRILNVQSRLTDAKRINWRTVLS
human antizyme peptide AZ_126-228, sequence (P54368 126-228): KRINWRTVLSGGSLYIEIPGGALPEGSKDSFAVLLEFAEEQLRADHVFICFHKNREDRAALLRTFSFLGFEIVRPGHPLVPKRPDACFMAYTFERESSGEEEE
human antizyme peptide AZ_95-169, sequence (P54368 95-169): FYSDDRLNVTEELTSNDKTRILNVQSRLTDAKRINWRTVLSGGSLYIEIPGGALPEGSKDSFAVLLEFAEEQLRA

“human antizyme peptide AZ_100-135 (from UniProt P54368 100-135) (domain or fragment)” and “human antizyme peptide AZ_114-228 (from UniProt P54368 114-228) (domain or fragment)” are within 1.5-fold of each other in IC50 of inhibition of ODC enzyme activity (ODC 0.19 µM), without AZI: 860 nM for the first, 970 nM for the second.

First: human antizyme peptide AZ_100-124 (from UniProt P54368 100-124) (domain or fragment)
Second: human antizyme peptide AZ_106-228 (from UniProt P54368 106-228) (domain or fragment)
The IC50 of inhibition of ODC enzyme activity (ODC 0.19 µM), without AZI of the first is 2.2-fold higher: 820 nM for the first, 370 nM for the second.

Going from “human antizyme peptide AZ_87-228 (from UniProt P54368 87-228) (domain or fragment)” to “human antizyme peptide AZ_95-169 (from UniProt P54368 95-169) (domain or fragment)”, the IC50 of inhibition of ODC enzyme activity (ODC 0.19 µM), without AZI rises from 170 nM to 370 nM (2.2-fold).

“human antizyme peptide AZ_126-228 (from UniProt P54368 126-228) (domain or fragment)” showed an IC50 of inhibition of ODC enzyme activity (ODC 0.19 µM), without AZI of 1190 nM.
